A protein production outcome set (Wang et al. 2014)

Assay: label from the status in PepcDB records

| Sequence | protein production |
| --- | --- |
| MSLVNNFTVKKVRSSNLELLRLLSMFFVLVVHADFQALGMPDRTEMTILPLFSVFRIIIEAFAIVCVNSFVLLSGWFGINFHIKSLCNLLFQCAFFLIGIYTFTILIGIEPLSISGIKRCLMLTNNVWFVKCYLGMFIMAPILNAFVEKTDKRTFSTVLLSFFIFQTIYGWFSNGAPYFEKGYSAFSFMGLYLLARYVRIYQPSYTQWSKSKNLLMYISLSTFTALMLIITCYFDKVGYFCMFWTYTSPLVIAGALYLLLFFNRFAFQNKGINWIAASCFAVYLFHFFIWEYFMKPHIQQLAVTYNGISCLLVITGLLLTFFTAAILIDKIRLYIWNHFVSKYIS | failed |
| MSDLAMANPAPERTVMQHVRPLPYEADFTGFLSNTVAPRWMEALRIQRMRTCFPHFDSGAPQHLCIITETTVRYRKPVRYSDAIVGKAWLQSARYSRWIIAFSFAFEFSGLPAFEGRQAGTFIDPQTHLPLPIPASLRLPADH | failed |
| MAQFYSAKRRTTTRQIITVSVNDLDSFGQGVARHNGKTLFIPGLLPQENAEVTVTEDKKQYARAKVVRRLSDSPERETPRCPHFGVCGGCQQQHASVDLQQRSKSAALARLMKHEVSEVIADVPWGYRRRARLSLNYLPKTQQLQMGFRKAGSSDIVDVKQCPILVPQLEALLPKVRACLGSLQAMRHLGHVELVQATSGTLMILRHTAPLSSADREKLECFSHSEGLDLYLAPDSEILETVSGEMPWYDSNGLRLTFSPRDFIQVNAGVNQKMVARALEWLDVEPEDRVLDLFCGMGNFTLPLATQAASVVGVEGVPALVEKGQQNARLNGLQNVTFYHENLEEDVTKQPWAKNGFDKVLLDPARAGAAGVMQQIIKLEPIRIVYVSCNPATLARDSEALLKAGYTIARLAMLDMFPHTGHLESMVLFSRVK | not failed |
| MNVLRPTLLTLACLLASPGFADDLPSLGDASSAIVSPQQEYQLGRAWLALLRSQVSQLNDPQLKDYVETSVYKLVETSQVNDRRLEFILINSPQLNAFAAPGGIIGVNGGLFLNAQTEGEYASVLAHELAHLSQRHFARGVEAQQRMQVPMMAALLAGIVIAAAGAGDAGIATIAGTQAAAIQEQRRFSRQNEQEADRIGILNLEKAGYDPRSMPTMFERLMRQYRFDAKPPEFLLTHPVTESRIADTRNRAEQARQGGTEDSLRYQLIRARVQLTYEESPGLAAKRFRAQLDENPKNDIARYGLAIAQIKGSQWNEARENLKPLLAKSPNDVTYNLAQIELDMANSRLPDAQTRVERMLNLYPGNYPLNQIRVDLLLKQNRPADAEKALEGLLKSRPDDPDVWYLVAETRGLSGNIIGLHQARAEYFALVGDYRQAIQQLDFAKRRAGSNFPLSSRIDARQREMMDQEQMVKDMMRLEHHHHHH | not failed |
| MSLIEIRKRTLIVETTYHENGPAPAQPLKLAASCAVIRNPYAGRYEPDLMPFMAELRSLGTLLATELVDTLGKDNIEVYSKAAIVGVDGEMEHGAVWHEAGGWAMRSVLGEPKAMVPAVKAVATAGYRMMVPVHYIHASYVRSHFNSIEIGIQDAPRPREILFALVMGTGARVHARLGGLTKEAVSVHDGQR | not failed |
| MKKRILFVSAIAIQCMMTSMALANDITSQQTAENIPFEKNQLSVRLNGEQYRSAFQIDLSDPNLILTIDTDLIPEEDIDALLPELNDSEEAQVSAFNEPKSLALRIEAKEKAANGDFVGALALLNEAEALTENPAKVLSMKGSVHYKLNQVELAIVSWKKALELDPSLTEVSDIIQWLEK | failed |
| HRPLNPAMVAFSNDPLLNDLALNSSYSLLFAVNNMKSEKSAEQFYGKMDNQKMLDLVRASSTKIDFDPTLLPTMNSNPATYQGKRKNLVILLQESLGAQFVGSLGGLPLTPNLDELMQEGWQFTQMYATGTRSVRGIEAVTTGFPPSPSRAVVKLSKSQTGFFTIADLLKEQGYHTQFIYGGEANFDNMKTFFFGNGFDQIVEEKNYTNPGFVGSWGVSDEDLYNKADEEFERLSKGDKPFFSLVFTSSNHSPYEYPEGKIEQYDSEHMTRNNAVKYSDYALGTFFDKAKKSSYWDDTIFIVIADHDARVFGANLVPVKHFHIPALIIGKDIQPRKDDRIANNIDMPPTLLSLIGVDAKTPMIGRDLTKPLAREDERAMMQYDKNFGYLTRDNLVVLSPGEKVSTMEYDFESQTMKPLEVDESVIDRAKANALFASKAYQNNWYSSKRTN | not failed |
| MSAAQAVDDVPLEHAGNDVSDRMSLQRGVQLYMNYCVGCHSLKYLRYSRIAADLGLSEVQVMSTLNVTGAKFGDTIMTGMPVDTSEQWFGKIPPDLSLVARVRGSDWIYTYLRSFYVDSTRPLGWNNRLFVDVSMPNPLSHLQGVQRAEYGGASQAGADRLVTGLVLVQPGQQSPAEFDQTLRDIVNFLQYAAEP | failed |
| MKTLTTPAPTKSASFREGVFDSLPIVIGYMPVAFAFGMNAVKLGFTPLEGIFLSCIIYAGASQFVITALLSAGMSIWVAALTVMAMDIRHVLYGPALRHRIVQQLPTRKTALWAFGLTDEVFAAAATRLAKDNRRWSENWMIGVSLLAWLSWVLGTVIGAVFGNGPLDNYPAVEAALSFMLPALFLSFLLASFKRKQSLVVACALGGALLGLLLSSIPAAILLGILSGCLASLVNSATPQVNA | failed |
| MIEEYLLRALLASLMVSTLLGLLSPLINVKGVAFLTHATFHALLFGAVLGMILGLIMGDLSLIFWISLLIAIIVVIGIAEMEIRGYSSDTAVGTMAGIIAGLTVLGFGILYKVMASRPYFALSESIVSYLTGEIFLITFDDLTLLVIGGFLVFTIMVIFYRDFLYLSFDPEGLESHGGNVRLYLMLLYFLVGAVGGLIVKTVGLITLQVLAVLPGAIALTISRGIREFVGISLGLTLAIQVSSTFLGYYFNIPPSGLATIFLGTIYGVLALRRKII | failed |
| MPDGWRKMGVLVFYDLPVVSPEQRLAAVRFHKFLLADGFERMHYSIYARYCGSMERAATYERRVEQALPAVGHVNLLKLTDRQMVGMRKWIRGNYRAPENAEFVPPAQYQLFLEHHHHHH | failed |
| MCIQKVIEDKLSSALKPTFLELVDKSCGCGTSFDAVIVSNNFEDKKLLDRHRLVNTILKEELQNIHAFSMKCHTPLEYDKLKSK | not failed |
| MILPPIPTPFDREGRLDEEAFRELAQALEPLVDGLLVYGSNGEGVHLTPEERARGLRALRPRKPFLVGLMEETLPQAEGALLEAKAAGAMALLATPPRYYHGSLGAGLLRYYEALAEKMPLFLYHVPQNTKVDLPLEAVEALAPHPNVLGIKDSSGDLSRIAFYQARLQEFRVYTGHAPTFLGALALGAEGGILAAANLAPRAYRALLDHFREGRLAEAQELQKKLFPLGDLLAKGGVPLLKQALRHLGLPAGYPRPPYPAESPLWERFLPVLEGLKEEGWVL | not failed |
| RIGIVVAAHGNSTASSMVQVVSQLLNVDNLKAVDMPLDMPPKEALRKIVEAVGEVNEENGVLLLVDMGSLSTFSEEIVRQTGIDVRTVDMVTTPIVLEAARKTALIDTQLETLHESLKNFHGYADIRQSETKQ | not failed |
| MKYLKNKIIHFLIFGGIYMDVEVLARAHGQQLVGYEGIKPLSLMGFTSLWMFLVGGLCGVIIGGLNDRPGYYNLKMWKQVLIGGTTITLVELFSGIFFNLYLGLHLWDYSKDRFNFMGQIELKNCIWWYVLPILIIWLDDVLSCYFYGDDRPPSLIMYLVKLVTLR | failed |
| MRTALLEVGLEELPASEFHSILKQLEEKSAELLKAYRVSSGSVEVFVGSRRFGVILKNLPERQEDFTEEKKGPPLNVAYDENGKPTRALEGFLRNNNASLENVVHREGYVYLSRVVEGKPVEEVLPDLFRDLVLGLNFRKPMRWGSGEHEYIRPVHWIVAMVDGRVLDLEIFGLRSSRISYGKRYHAGSIEIPDSERYYESLKKGFVISSHLERKKFVLEQIDEFEKRSSMKIERDEELIEEIVAITEYPRIVVGQFDRKYLELPEEIIVTAVKHHQRSFIAHKGTLTNTFVAFQDGPQPPENVVKGYERVINARLEDARYYFQKDLETPLEKMNEKLKEIVFQEKLGTLYDKVERIKKISQRLCEDLKLPGSFTQKVLEAASICKADIASKVVYEFPELQGVMGRIYALREGINEEIATAIEDHYSEEPQTVIGSILGIADRIDTIVGNFAIGNVPTSSKDPYGLKSKADTIFRIIRKNEWDISLEELLTFASSLVGYRLSEELETFFAGRFYQFLINELGISFDVARAVNHLWKKPLR | failed |
| MTAIPLTFYLGLAALLFSIGLYGVMTHKSGIRMIMCIELMLNSANLNLVAFSSYTDTLNGQVFAIFSIALAAAEAAVGFAIFMAIYRMHDKINLDELNILRW | failed |
| MNNPQCSYTVRCFFLALLVNLFLPNILPRQLASAQDVPSEASSDAPDLGVVWTPSTAPDSALAALDRIAATGATAVRLTHLPADTTATTIATRADSLGLRLYVDLPMADGSAPRPDEARPQADASLDQLRSLANRHASITHVGLARGASTTGSRRCDRLRRWTERIHDASASLHTYYVTPFVPSADRCADAVDQPLLDLRGHPRPTDRWRAWRTRTDSVGIGALGTWTRPAAASGLRVPHSAERQARYLETTLSRLLDPTRAAPPVVFVARWQDDDASLLPSRRYGLHDAAGTPRPAATVVRGLYSGTQRTFAFPDGSAPAGTSGLVLVGWGLVAVLGLLYARSLFVRETAVRYFTTPGFYREALRDGREVSFGANSLLLGLVGGSLGVAAARMARLATAQPETERVLAALPRVVGTALAPGVEHPTLAGVAVGGGALVLLLLWTGAGVAMARLGTRFTVAQGLMLVTWPCWPVLLAPPVALAAGPNAPLSPSLSTLVLLGGGTLVLLSVTLRVLFDYWRVTDAPAWTLLPLAALSPLALVGASLLVAAQYGVSFSLLWRLAVYT | failed |
| MTIPLIIGGVLLAILILLILVFITKYRTVGPDEALIVTGNWLGGGKNVVTTDDGKKIKIIRGGGTFVVPIMQRAEPLSLLNYKLEVGTRDTYTKQGVPVTVNGVSIIKVGSTIEEVSTAAEQYLGKETEELKVEAKEVLEGHLRAILSSMTVEDAYSNREQFAQKVHEVASTDLKKMGLRIVSFTIKEIMDKNGYLDALGQPQIATVKRDATIANAEREKEARIEKARAEKEAKEAEYQRDAQIAEAEKHKELKVQSYKREQEQARADADLSYELQQAKAQQGVTEEQMRVKIIEREKQIELEEKEIARREKQYDAEVKKKADADRYAVEQSAEAEKVKQIKKADADQYKIEAEARARAEEVRVEGLAKAEIEKAQGQAKAEVQKAQGTAEADVIRLKGLAEAEAKQKIAEAFELYGQAAIMDMVLKMLPSYAKEVASPLSNIDKITVVDTGGGGKNSGAGKVAGYATDLMATMQETLKASSGIDLKELLEGFAGKGAVQQLSSDKPVVSVVEDEKKEVEKDKELEHHHHHH | failed |
| AVNEENIMIPKGVEVYEITGPYFFGIATKFEETMAQLGDRPNVRIIRMRKVPFIDSTGIHNLTTLCEMSQKEKITVILSGVNEKVYKVLEKSGFYELLGKENICPNFKIALDRAEEV | failed |
| MNLNEYKLLTFFNMKYKRKSKEEFLIKYQHDNTFRIMSLCLIILFLGVMSASVAHAESYKFVTKWGSYGNGAGQFHYPRAIVATSSGYIYVADSGNNRVQEFNSNGKFINQWSSTNDVSLGSVNGVAIDSSGDVYVADTNNRIVKFDKNGNFITKFGSYGSGNVQFKNARDICLDSSGNIYVADTGNNRIQKLDNNGNYLVQWGSYGSSNGQFKNPIDVALDSLDNVYVADKDNHCIKKFDSNGNYLMQFGNSGNGDGQFNNIISVFVDSSGNIYVSDRGNTRIQKFDSDGNYLTHWGSYGTNDGQFKNPEDIGVDSSGNVYVADADNNRIQKFAPVYPPVTNFVSNVTTGYAPLAVKFTDTSTGTPFSWTWNFGDGTFSTVKNPTHTYSKAGKYTVKLTATNEGGNSTAAKTNYITVKTTTVKPVAIFSASPTSGKAPLKVTFTDKSTGSPTKWKWNFGDGSKSFLQNPSHKYSKAGKYTVSLTVKNDKGSNTVTKTNYLTVVAKPVAAFSASPTSGKAPLKVTFTDKSTGSPTKWKWNFGDGTTSAKQNPIHKYSKAGKYKVTLTVANAAGINTVTKTNYITVIAKPAAAFSASPTSGKAPLKVTFSDKSTGTPTKWKWTFGDGSKSFLQNPTHKYSKAGKYKVILTVTNTAGSNTVTKTNYITVVAKPVAAFSASPTSGKAPLKVTFSDKSTGTPTKWKWNFGDGATSIKQNPVHKYSNVGSYTVKLTVTNAAGSNTKTISNYIILKSK | failed |
